From paper doi:10.1101/2020.05.22.111005 (bioRxiv, 2020)

Experiments:
[1] = biological target: SARS-CoV-2 S receptor-binding domain (SRBD), monomeric, wild type (SARS-CoV-2, Wuhan-Hu-1 reference spike, UniProt P0DTC2); test: BLI
[2] = biological target: T1, prefusion-stabilized trimeric SARS-CoV-2 S protein ectodomain (S2Pecto) (SARS-CoV-2, Wuhan-Hu-1 reference spike, UniProt P0DTC2, stabilised); test: ELISA
[3] = biological target: T1, prefusion-stabilized trimeric …; test: negative-stain electron microscopy

B1: COV2-2196 (human mAb) (antibody, V domains shown)
VH: QMQLVQSGPEVKKPGTSVKVSCKASGFTFMSSAVQWVRQARGQRLEWIGWIVIGSGNTNYAQKFQERVTITRDMSTSTAYMELSSLRSEDTAVYYCAAPYCSSISCNDGFDIWGQGTMVTVSS
VL: not shown
B1: binds [1]; binds [2].

B2: Fab COV2-2196 (Fab, V domains shown)
VH: B1 VH
VL: not shown
B2: binds [3].

B3: COV2-2165 (human mAb) (antibody, V domains shown)
VH: EVQLVESGGGLVQPGGSLRLSCAASGLTVRSNYMTWVRQTPGKGLEWVSVIYSGGSTFYADSVKGRFTISRDNSKNTVYLQMNSLRAEDTAVYYCARDLVTYGLDVWGQGTTVTVSS
VL: DIQLTQSPSFLSASVGDRVTITCRASQGISNYLAWYQQKPGTAPNLLIYAASTLQSGVPSRFSGSGSGTEFTLTISSLQPEDFATYYCQLLNSHPLTFGQGTRLEIK
B3: binds [1].

B4: Fab COV2-2165 (Fab, V domains shown)
VH: B3 VH
VL: B3 VL
B4: binds [3].
